Patent publication US20260258115A1 (MAPP BIOPHARMACEUTICAL, published 2026)

What was measured:
[1] = target: RSV postfusion F (postF), F deltaFP (respiratory syncytial virus, UniProt P03420 26-513); assay: BLI, IgG on sensor
[2] = target: RSV fusion glycoprotein (RSV F) on RSV-A2 virus (respiratory syncytial virus, UniProt P03420 26-574); assay: cell-based or functional assay
[3] = target: RSV prefusion F (preF), DS-Cav1 (respiratory syncytial virus, UniProt P03420 26-513); assay: BLI, IgG on sensor, 100 nM antigen
[4] = target: RSV F on RSV subtype A virus (RSV-A2) (Respiratory Syncytial Virus, subtype A, …, UniProt P03420 26-574); assay: cell-based or functional assay
[5] = target: RSV prefusion F (preF), DS-Cav1 stabilized trimer, subtype A (Respiratory Syncytial Virus, subtype A, UniProt P03420 26-513); assay: BLI, IgG on anti-human IgG sensors, 100 nM antigen, apparent KD
[6] = target: RSV F on recombinant mKate-RSV A2 virus (Respiratory syncytial virus A2, UniProt P03420 26-574); assay: cell-based or functional assay
[7] = target: RSV F on recombinant mKate-RSV B 18537 virus (Respiratory syncytial virus B 18537, UniProt P13843 26-574); assay: cell-based or functional assay
[8] = target: T1, RSV postfusion F, subtype B (postF trimer) (Respiratory syncytial virus subtype B, UniProt P13843 26-513); assay: BLI, IgG apparent affinity
T1 construct: also called Postfusion subtype B

Binder | binding result [1] | Neutralization IC50 (RSV subtype A) [2] | Kd [3] | also measured
ADI-41401 (antibody, V domains shown, IgG1) VH: EVQLLESGGGLVHPGRSLRLSCAASGFTFGDYAMHWVRQAPGKGLEWVSGISWNSDTIEYADSVKGRFTISRDNAKNSLYLQMNSLRAEDTALYYCAKDFGSSWEAYFDYWGQGTLVTVSS VL: DIVLTQSPSYLSASVGDRVTITCRASQSISTYLNWYQQKPGKAPKLLISAASSLQSGVTSRFSGSGSGTDFSLTISSLQPEDFATYYCQQSYSTALTFGGGTKVEIK | no binding (tested: 100 nM antigen) | > 25 µg/mL | 3.22 nM | –
ADI-41447 (antibody, V domains shown, IgG1) VH: EVQLLESGGGLVQPGGSLRLSCAASGFTFSTYAMNWVRQAPGKGLEWVSTISGSGGSTYYGDSVKGRFTISRDNSKNTLYLQMNSLRAEDTAVYYCAKAPTPWCSGGSCYVSYWGQGTLVTVSS VL: DIVMTQTPGTLSLSPGERGTLSCRASQSVSSSYLAWYQQKPGQAPRLLIYGASSRATGIPDRFGGSGSGTDFTLTISTLEPEDFAVYYCQQYQSSPWTFGQGTKLEIK | no binding (tested: 100 nM antigen) | > 25 µg/mL | 54.1 nM | –
ADI-41828 (antibody, V domains shown) VH: EVQLVESGGGLVQPGGSLRLSCADSDFTFSTYSMNWVRQAPGKGLEWISYITGRSSAIYYADSVKGRFTISRDNAKNSLFLQMNSLRAEDTAVYYCTTFMAGYSFGHGDAFDIWGQGTTVTVSS VL: SYELTQPPSVSVAPGQTARITCGGNNIGSKSVHWYQQKPGQAPVLVVYDDSDRPSGIPERFSGSNSGNTATLTISRVEAGDEADYYCQVWNSNSDHPHWVFGGGTQLTVL | – | – | – | Neutralization IC50 (RSV subtype A) [4]: 5.53 µg/mL; Kd [5]: 0.241 nM
ADI-41452 (antibody, V domains shown, IgG1; also called Ab 736) VH: QVQLVQSGAELKKPGASVKVSCKASGHTFATYAIHWVRQAPGQSLEWLGWINTANGDTKYSQKFRATVTIHGDTSANTVYLELSRLRSEDTAVYYCASPPLVGAINLEFWGPGTLVTVSS VL: QSVLTQPASVSGSVGQSITISCTGTSSDVGGYNSVSWYQHHPDKAPKLIIYEVSNRPSGVSHRFSGSKSGNTASLTISGLQAEDEADYYCSSYTTSDTLIFGGGTKVTVL | no binding (tested: 100 nM antigen) | > 25 µg/mL | 3.33 nM | –
ADI-41421 (antibody, V domains shown, IgG1) VH: QVQLVESAAEVKRPGASLKVSCKASGYTFIDYDISWVRQAPGQGLDWMGWISTYDGSAKYPENLQARVAMTTDTSTSTAYMELESLTSDDTAVYYCARARRGSSGWVSTTGPTPFFDYWGRGTLVTVSS VL: SYELTQPPSVSVSPGQTARITCSGDALPKRYAYWYQQKSGQAPVLVIYEDNKRPSGIPERFSGSSSGTVATLTISGAQVEDEADYSCYSTDATGNHRGLFGGGTKLTVL | no binding (tested: 100 nM antigen) | 4.78 µg/mL | 2.52 nM | –
ADI-21089 (antibody, V domains shown) VH: EVQLLESGGGLVKPGGSLRLSCVASGFRFTSYSMNWVRQAPGKGLEWVSSISASSSYVDYADSLKGRFTISRDNAQNSLFLQMNSLRAEDTAVYYCARDYYDSGNYHSPFPMDVWGQGTTVTVSS VL: QSVLTQPPSVSGAPGQRVTISCTGSRSNIGAGYDVHWYQQLPGTAPKLLIYGNNKRPSGVPDRFSGSKSGTSASLAITGLQAEDEADYYCQSYDSGPIFGGGTKVTVL | – | – | – | Neut IC50 (ug/ml) subtype A [6]: 0.27 µg/mL; Neut IC50 (ug/ml) subtype B [7]: 0.17 µg/mL; Kd [8]: 3.34 nM
ADI-41416 (antibody, V domains shown, IgG1) VH: EVQLVESGGGLVKPGGSLRLSCAASGFKFSSYTMNWVRQAPGKGLEWVSSITGGSSFINYADSVKGRFTISRDNAKNSLYLQMVSLRAEDTAVYYCARDLSSHITIFGAVSDYWGRGTTVTVSS VL: QSVLTQPPSVSGAPGQRVTISCTGSSSNIGAGYDAHWFQQLPGSAPKLLIYANTNRPSGVPDRFSGSKSGTSASLAITGLQAEDEADYYCQSYDSTLSVVFGGGTKLTVL | no binding (tested: 100 nM antigen) | 0.05 µg/mL | 0.444 nM | –
ADI-21086 (antibody, V domains shown) VH: EVQLVETGGGLVKPGGSLRLSCAASPFAFSNYYMSWIRQAPGKGLEWISNISGGSTFTNYADSVKGRFTISRDNARNSLYLLMNNLRTEDTAVYYCAREASVAAGTPEGFDVWGQGTTVTVSS VL: QSVVTQPPSVSGAPGQRVTISCTGSSSNIGAGYDVNWYQQFPGTAPKLLIYGNRNRPSGVPARFSGSKSGASASLAITGLQAEDEADYYCHSYDSGLSGSVFGGGTKLTVL | – | – | – | Neut IC50 (ug/ml) subtype A [6]: 0.11 µg/mL; Neut IC50 (ug/ml) subtype B [7]: 0.47 µg/mL; binding result [8]: no binding
ADI-41377 (antibody, V domains shown, IgG1; also called Ab 674) VH: QVQLQQSGPGLVKPSQTLSLTCAISGDSVSSDSATWNWIRQSPSRGLEWLGRAYYRSKWYYDYAPSVKSRLTINPDTSKNQFSLQLTSVTPQDTAVYFCARDLPPLEYFDGSGYYFLDHWGQGTLVTVSS VL: SYELTQPPSVSVAPGQTARLSCGGHNIGSKSVQWYQQKPDQAPVLVVYDDHDRPSGIPDRFSGSNSGDMATLTISRVEAGDEADYYCQVCESGRDPMVFGGGTKVTVL | no binding (tested: 100 nM antigen) | 0.24 µg/mL | 1.74 nM | –
ADI-41398 (antibody, V domains shown, IgG1; also called Ab 691) VH: EVQLLESGAEVKKPGASVKVSCKASGYTFTNYGISWVRQAPGQGLEWMGWISAYNGNTNYAQKLQGRVTMTTDTSTSTAYMELRSLRSDDTAVYYCARDGGVIAAATLGYWGQGTLVTVSS VL: EIVLTQSPLSLPVTLGQPASISCRSSQSLVYSDGNTYLSWFQQRPGQSPRRLIYKISNRDSGVPNRFSGSGSGTDFTLKISRVEAEDVGIYYCMQGIYWPPTFGQGTKVEIK | no binding (tested: 100 nM antigen) | 0.17 µg/mL | 0.6 nM | –
ADI-41434 (antibody, V domains shown, IgG1; also called Ab 718) VH: EVQLVESGGGLVQPGRSLRLSCEASGFTFDDYAMHWVRQTPGKGLEWVSGISWNSGSIVYADSVKGRFTISRDNAKNSLYLQMHSLRPEDTALYYCAKDNYTFGNYYYYYGMDVWGQGTTVTVSS VL: EIVLTQSPVTLSVSPGERATLSCRASQNVISNLAWYQQKPGQAPRLLIYGASTRATGIPARFSGSGSGTEFTLTISSLQSEDFAVYYCQQYNNWPLSFGGGTKVEIK | no binding (tested: 100 nM antigen) | > 25 µg/mL | 0.613 nM | –
ADI-41442 (antibody, V domains shown, IgG1; also called Ab 726) VH: EVQLLESGGGLVQPGRSLRLSCAASGFTFDDYAMHWVRQAPGKGLEWVSGISWHSGSIVYADSVKGRFTISRDNAKNSLYLQMSSLRAEDTALYYCVKDHYNWNDNPHFHYGLDVWGQGTTVTVSS VL: EIVLTQSPATLSVSPGERATLSCRASQSVISNLAWYQQKPGQAPRLFIYGASTRATGIPARFSGSGSGTEFTLTISSLQSEDFAVYFCQQYNNWPITFGQGTRLEIK | no binding (tested: 100 nM antigen) | 0.04 µg/mL | 0.521 nM | –
ADI-41356 (antibody, V domains shown, IgG1) VH: QVQLVQSGAEVKKPGASVKVSCKASGYTFTNYDINWVRQATGQGLEWMGWMNRNNGNTGYARKFQGRVTMTRNTSISTAYMELSSLRSEDTAVYYCARGGDFYAMDVWGQGTTVTVSS VL: SYELTQPPSVSVSPGQTASITCSGDKLGDKYASWYQQKPGQSPVLVIYQDTKRPSGVPERFSGSNSGNTATLTISGTQAVDEADYYCQVWDGSIAFGGGTKVTVL | no binding (tested: 100 nM antigen) | 0.115 µg/mL | 0.725 nM | –
ADI-41450 (antibody, V domains shown, IgG1) VH: EVQLVESGGGLVKPGGSLRLSCAASGFAFSSYGINWVRQVPGKRLEWVSSISGGSSFINYADSVKGRFTISRDNAGNSVYLQMNSLRAEDTAVYFCARESYGSGSSLNWFDPWGQGTLVTVSS VL: QSVLTQPPSVSGAPGQRVTISCTGSGSNIGAGYDVHWYQQLPGIAPRLVIFGNRNRPSGVPDRISGSKSDTSASLAITGLQAEDEGDYYCQSYDKRLSGWVFGGGTKLTVL | no binding (tested: 100 nM antigen) | 0.21 µg/mL | 0.613 nM | –
ADI-41449 (antibody, V domains shown, IgG1) VH: EVQLVESGGGLVKPGGSLRLSCAASGFSFSSYRVNWVRQAPGKGLEWVSSITGGSSFIDYADSVKGRFTISRDNAKNSLFLQMNSLRAEDTAVYFCARDSMTTVTNSLAFDIWGQGTMVTVSS VL: QSVLTQPPSVSGAPGQRVTISCTGSSSNIGVGYDVQWYQQLPGTAPKLLIYSNNKRPSGVPDRFSGSKSGTSASLAITGLQAEDEADYYCQSYDRSLSVVFGGGTKVTVL | no binding (tested: 100 nM antigen) | 0.16 µg/mL | 0.508 nM | –
ADI-41352 (antibody, V domains shown, IgG1) VH: EVQLVESGGGLVQPGGSLRLSCAASGFTFSSYRMNWVRQAPGKGLEWVSYIDISSSTIYYADSVKGRFTISRDNAKNSLYLQMNSLRAEDTAVYYCARDQLVWEPLIRNHYYYAMDVWGQGTTVTVSS VL: not shown | no binding (tested: 100 nM antigen) | > 25 µg/mL | 3.36 nM | –
ADI-41419 (antibody, V domains shown, IgG1) VH: EVQLVESGGGLVQPGRSLRLSCAASGFTFDDYAMHWVRQAPGKGLEWVSGISWNSGSVGYSDSVKGRFTISRDNAKSSLYLQMNNLRAEDTALYYCARDMAHTQDYFDTSEYDSWGQGTLVTVSS VL: QPVLTQPASVSGSPGQSITISCTGTSSDIGAYNYVSWYQQHPGKAPKLVVYEVNNRPSGISNRFSGSKSGNTASLTISGLQAEDEADYYCSSYTVSATLVFGGGTKLTVL | no binding (tested: 100 nM antigen) | 0.01 µg/mL | 0.305 nM | –
